According to patent US20200353078A1 (AstraZeneca / MedImmune, published 2020):
Substitutions are numbered along the chain they refer to.

T1: His10/Avi Cyno IL-33 (cynomolgus monkey)
T1 construct: also called Cynomolgus 10His Avitag IL-33; biotinylated His Avi cynomolgus IL-33
T1 chain: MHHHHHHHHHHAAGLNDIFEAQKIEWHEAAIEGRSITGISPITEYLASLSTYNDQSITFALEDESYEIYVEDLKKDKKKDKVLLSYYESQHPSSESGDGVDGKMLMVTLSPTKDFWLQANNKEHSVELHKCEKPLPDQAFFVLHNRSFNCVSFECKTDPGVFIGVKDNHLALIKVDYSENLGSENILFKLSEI

T2: Human ST2 ECD-Flag-his10 (human, UniProt Q01638 19-328)
T2 construct: also called Human ST2 Flag His; FLAG® His-tagged human ST2
T2 sequence: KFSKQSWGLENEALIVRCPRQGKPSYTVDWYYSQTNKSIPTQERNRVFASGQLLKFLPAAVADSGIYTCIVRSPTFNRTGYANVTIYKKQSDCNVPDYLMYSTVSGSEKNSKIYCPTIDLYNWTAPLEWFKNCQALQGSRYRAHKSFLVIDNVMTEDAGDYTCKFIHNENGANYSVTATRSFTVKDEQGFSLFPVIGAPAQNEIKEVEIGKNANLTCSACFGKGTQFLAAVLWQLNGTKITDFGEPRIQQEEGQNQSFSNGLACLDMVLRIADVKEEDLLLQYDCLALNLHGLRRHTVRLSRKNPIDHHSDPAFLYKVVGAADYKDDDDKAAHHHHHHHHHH

T3: ST2 on human umbilical vein endothelial cells (human, UniProt Q01638 19-556)
T3 sequence (looked up): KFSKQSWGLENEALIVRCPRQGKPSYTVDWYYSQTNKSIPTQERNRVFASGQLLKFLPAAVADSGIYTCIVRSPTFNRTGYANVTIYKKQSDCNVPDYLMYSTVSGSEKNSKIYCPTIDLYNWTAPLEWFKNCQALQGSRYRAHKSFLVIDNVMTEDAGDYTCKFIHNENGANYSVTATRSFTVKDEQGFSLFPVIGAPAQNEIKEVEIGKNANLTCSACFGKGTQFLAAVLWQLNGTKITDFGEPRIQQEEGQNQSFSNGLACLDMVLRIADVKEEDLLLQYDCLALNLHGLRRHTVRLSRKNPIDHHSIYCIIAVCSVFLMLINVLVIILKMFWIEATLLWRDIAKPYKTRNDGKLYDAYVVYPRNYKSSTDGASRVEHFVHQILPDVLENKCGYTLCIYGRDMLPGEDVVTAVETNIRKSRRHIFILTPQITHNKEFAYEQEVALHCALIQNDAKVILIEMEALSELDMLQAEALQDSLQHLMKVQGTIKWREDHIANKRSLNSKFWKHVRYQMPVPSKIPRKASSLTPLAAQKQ

B1: 33_640027 scFv (scFv, V domains shown)
VH: EVQLLESGGDLVQPGGSLRLSCAASGFTFSSYAMSWVRQAPGKGLEWVSAIGGSGGSTYYADSVKGRFTISRDNSKNTLYLQMNSLRAEDTAVYYCARDLWMQLWGGGLRYPFGYWGQGTMVTVSS
VL: LPVLTQPPSVSVSPGQKASITCSGERIGDKYAAWYQQKPGQSPILVIYRDTKRPSGIPERFSGSNSGNTATLTISGTQDMDEADYYCQVWDSSTGVFGGGTKVTVL
notes: Single chain Fv
B2: 33v20064 scFv (scFv, V domains shown)
VH: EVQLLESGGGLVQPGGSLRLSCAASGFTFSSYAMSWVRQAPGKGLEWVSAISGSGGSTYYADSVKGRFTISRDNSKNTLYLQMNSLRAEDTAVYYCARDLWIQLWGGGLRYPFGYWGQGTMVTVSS
VL: B1 VL with I27M, R49Q
notes: Single chain Fv
B3: 33_640050 scFv (scFv, V domains shown)
VH: B1 VH with D10G, G52S, A97P, D99H, L100K, W101F
VL: B1 VL with L1S, P2Y, K17T, I27M, I44V, R49Q, D79A
notes: Single chain Fv
B4: Recombinant human IL-33 (construct not named in the example) (ligand, UniProt O95760 112-270, looked up)
chain: SITGISPITEYLASLSTYNDQSITFALEDESYEIYVEDLKKDEKKDKVLLSYYESQHPSNESGDGVDGKMLMVTLSPTKDFWLHANNKEHSVELHKCEKPLPDQAFFVLHNMHSNCVSFECKTDPGVFIGVKDNHLALIKVDSSENLCTENILFKLSET
notes: also called Recombinant, enzymatically biotinylated human IL-33 (produced in-house); IL-33 (200 nM)
B5: His10/Avi Human IL33-01 (ligand)
chain: T1 chain with K77E, S94N, Q118H, R146M, S147H, F148S, Y177S, G182C, S183T, I193T
B6: His10/Avi Human IL33-11 (ligand)
chain: MHHHHHHHHHHAAGLNDIFEAQKIEWHEAAIEGRSITGISPITEYLASLSTYNDQSITFALEDESYEIYVEDLKKDEKKDKVLLSYYESQHPSNESGDGVDGKMLMVTLSPTKDFWLHANNKEHSVELHKSEKPLPDQAFFVLHNMHSNCVSFECKTDPGVFIGVKDNHLALIKVDSSENLSTENILFKLSET

Experiments:
His10/Avi Human IL33-01 [1] = target: B5; experiment: HTRF epitope competition, scFv titrated; competitor DyLight labelled 33v20064 IgG
Procedure: (§1) This was followed by the addition of 2.5 microlitres of a solution containing 0.8 nM biotinylated human IL-33-01 combined with 0.75 nM streptavidin cryptate detection (Cisbio International, 610SAKLB) for the human assay or a solution containing 4 nM biotinylated cynomolgus IL-33 combined with 1.5 nM streptavidin cryptate detection (Cisbio International, 610SAKLB) for the cynomolgus assay. All dilutions were performed in assay buffer containing 0.8 M potassium fluoride (VWR, 26820.236) and 0.1% bovine serum albumin (BSA, PAA, K05-013) in Dulbeccos PBS (Invitrogen, 14190185). Assay plates were incubated for 1 hour at room temperature and time resolved fluorescence was read at 620 nm and 665 nm emission wavelengths using an EnVision plate reader (Perkin Elmer). Data were analysed by calculating the 665/620 nm ratio followed by the % Delta F values for each sample. The 665/620 nm ratio was used to correct for sample interference using Equation 1. The % Delta F for each sample was then calculated using Equation 2. The negative control (non-specific binding) was defined by replacing biotinylated IL-33 combined with streptavidin cryptate detection with streptavidin cryptate detection only. The % Delta F values were subsequently used to calculate % specific binding as described in Equation 3.
(§2) Unique scFv were expressed again in bacteria and purified by affinity chromatography (as described in WO01/66754). Purified anti-IL-33 antibody samples were tested for potency of inhibition by competing a dilution series of the purified preparation against DyLight labelled 33v20064 IgG or DyLight labelled 33_640027 IgG for binding to biotinylated His Avi IL33-01, biotinylated His Avi IL33-11 or biotinylated His Avi cynomolgus IL-33. Methods are as described in the previous section.

His10/Avi Human IL33-11 [2] = target: B6; experiment: as above
Procedure: as §1, §2

His10/Avi Cyno IL-33 [3] = target: T1, His10/Avi Cyno IL-33; experiment: as above
Procedure: as §1, §2

His10/Avi Human IL33-01 [4] = target: B5; experiment: HTRF epitope competition, scFv titrated; competitor DyLight labelled 33_640027 IgG
His10/Avi Human IL33-11 [5] = target: B6; experiment: as above
His10/Avi Cyno IL-33 [6] = target: T1, His10/Avi Cyno IL-33; experiment: as above
Human ST2 ECD-Flag-his10 = target: T2, Human ST2 ECD-Flag-his10; experiment: SPR Biacore T100, 25 C, biotinylated human IL-33 on streptavidin C1 chip, ST2-Flag-His10 as analyte
Procedure: Fab fragments were generated by papain cleavage from full length IgG1 and purified by SEC. […] Streptavidin was covalently immobilised to a C1 chip surface using standard amine coupling techniques at a concentration of […] in 10 mM Sodium acetate pH 4.5. […] Recombinant, enzymatically biotinylated human IL-33 (produced in-house) was titrated onto the streptavidin chip surface at […] in HBS-EP+ buffer to enable ˜30 RUs of Fab binding at saturation (Rmax). This low level of analyte binding ensured minimal mass transport effects.
The IL-33 Fab was serially diluted from 5 nM to 78 pM in HBS-EP+ buffer and flowed over the chip at 50 μl/min, with 3 minutes association and up to 30 minutes dissociation. Multiple buffer only injections were made under the same conditions to allow for double reference subtraction of the final sensorgram sets, which were analysed using the BiaEval software (version 2.0.1). The chip surface was fully regenerated with pulses of 3M MgCl₂.
The affinity of ST2-Flag-His10 (SEQ. ID no. 650) expressed in HEK-EBNA cells for human IL-33 was determined by BIACORE™ using the same methods described above.

[7] = target: T3, ST2 on human umbilical vein endothelial …; experiment: cell-based or functional assay

Row | IC50 (His10/Avi Human IL33-01 [1]) | IC50 (His10/Avi Human IL33-11 [2]) | IC50 (His10/Avi Cyno IL-33 [3]) | IC50 (His10/Avi Human IL33-01 [4]) | IC50 (His10/Avi Human IL33-11 [5]) | IC50 (His10/Avi Cyno IL-33 [6]) | Kd (Human ST2 ECD-Flag-his10) | koff (Human ST2 ECD-Flag-his10) | kon (Human ST2 ECD-Flag-his10) | IC50 (nM) Untreated, HUVEC NFkB translocation assay [7] | Binder
1 | 0.4 nM | 0.6 nM | 8.2 nM | 3.8 nM | 2.9 nM | 38 nM | – | – | – | – | B1
2 | 12 nM | 26 nM | 103 nM | 1500 nM | 1470 nM | 3430 nM | – | – | – | – | B2
3 | 0.2 nM | 0.4 nM | 1.4 nM | 2.5 nM | 2.4 nM | 4.1 nM | – | – | – | – | B3
4 | – | – | – | – | – | – | 2.9 pM | 4.35e-05 s⁻¹ | 1.52e+07 M⁻¹ s⁻¹ | – | B4
5 | – | – | – | – | – | – | – | – | – | 0.13 nM | B5
6 | – | – | – | – | – | – | – | – | – | 0.49 nM | B6
